The record followed here is article PMC8369199.

In the assay the target is cetuximab (human). As to the kind of experiment: BLI; cetuximab (20 µg/ml) immobilised on Fab2G sensors; scFv hFc4 25 to 200 nM in kinetics buffer; 1:1 Langmuir model. In general terms: In BLI a coated tip is dipped into the sample, and binding shifts an interference pattern.

B1: humanized scFv hFc4 (scFv, V domains shown)
VH: EVQLLESGGGLVQPGGSLRLSCAASGFTFSSYAMNWVRQAPGKGLEFVAGINAAGSGANYAPAVKGRATISRDNSPNTVYLQMNSLRAEDTAVYYCAKGSGSCNHCGGGHGGMIDEWGQGTLVTVSS
VL: SYELMQPPSVSVSPGQTARITCSGGSSTYYGWYQQKPGQAPVTVIYWDDERPSGIPERFSGSSSGNTVTLTINGVQAEDEADYYCGGYDSSVGIFGGGTKLTVL
In the case of B1, the Kd (as a rule, the constant that tells how readily two partners part at equilibrium) is 20.5 nM.
